Laboratory results published in PMC3136212, “Identification of the DNA-Binding Domains of Human Replication Protein A That Recognize G-Quadruplex DNA”.

How the values were obtained:
[1] = molecular target: T1, RPA (full-length heterotrimer RPA1/RPA2/RPA3) (human, UniProt P27694;P15927;P35244 1-616;1-270;1-121); assay: FP; 1250 mM NaCl; FP: 0.060 uM FAM-oligo, 10-1500 mM NaCl, room temperature; CD: Buffer A 25 mM Tris pH 7.5, 2 mM MgCl2, 6% glycerol, 1 mM DTT, 100 (or 10) mM NaCl, room temperature; parameters: unit not given here; settings: protein: recombinant; copies: 1;1;1; label: 5' 6-FAM; intramolecular G4, antiparallel at 100 mM NaCl, mixed/parallel at 10 mM NaCl
T1 sequence (P27694 whole entry, chain 1 of 3): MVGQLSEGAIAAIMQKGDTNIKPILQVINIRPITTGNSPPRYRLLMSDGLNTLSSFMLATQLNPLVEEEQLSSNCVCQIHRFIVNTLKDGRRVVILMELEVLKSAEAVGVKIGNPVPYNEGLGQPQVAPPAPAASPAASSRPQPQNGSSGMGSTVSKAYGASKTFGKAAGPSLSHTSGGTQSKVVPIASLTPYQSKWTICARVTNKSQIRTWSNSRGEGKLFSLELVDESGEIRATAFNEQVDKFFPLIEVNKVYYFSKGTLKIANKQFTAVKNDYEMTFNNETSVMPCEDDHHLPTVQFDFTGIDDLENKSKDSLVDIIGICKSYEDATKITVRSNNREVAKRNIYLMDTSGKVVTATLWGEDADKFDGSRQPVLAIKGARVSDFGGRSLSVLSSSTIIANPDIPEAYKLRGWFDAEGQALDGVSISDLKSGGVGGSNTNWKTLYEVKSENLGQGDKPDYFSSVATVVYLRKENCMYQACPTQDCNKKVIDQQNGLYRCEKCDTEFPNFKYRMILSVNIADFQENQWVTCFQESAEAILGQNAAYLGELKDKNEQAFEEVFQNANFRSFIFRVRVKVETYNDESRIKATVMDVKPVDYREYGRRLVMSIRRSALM
T1 sequence (P15927 whole entry, chain 2 of 3): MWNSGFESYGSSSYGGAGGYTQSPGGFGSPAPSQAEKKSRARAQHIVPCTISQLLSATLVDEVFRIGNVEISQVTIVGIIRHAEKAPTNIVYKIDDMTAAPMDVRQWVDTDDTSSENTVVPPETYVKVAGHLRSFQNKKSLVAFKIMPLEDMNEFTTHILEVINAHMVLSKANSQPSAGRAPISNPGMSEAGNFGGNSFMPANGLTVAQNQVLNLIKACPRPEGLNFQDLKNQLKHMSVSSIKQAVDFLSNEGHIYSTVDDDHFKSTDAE
T1 sequence (P35244 whole entry, chain 3 of 3): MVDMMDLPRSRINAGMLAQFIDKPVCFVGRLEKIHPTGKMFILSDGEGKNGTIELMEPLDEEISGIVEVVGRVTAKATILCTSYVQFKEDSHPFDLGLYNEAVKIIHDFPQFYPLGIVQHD

RPA-AB [2] = molecular target: T2, RPA-AB (human, UniProt P27694 181-441); assay: FP; 100 mM NaCl; FP: 0.060 uM FAM-oligo, 10-1500 mM NaCl, room temperature; CD: Buffer A 25 mM Tris pH 7.5, 2 mM MgCl2, 6% glycerol, 1 mM DTT, 100 (or 10) mM NaCl, room temperature; parameters: unit not given here; settings: protein: recombinant, tags: N-terminal His6, thrombin-cleaved, label: 5' 6-FAM
T2 sequence (P27694 181-441): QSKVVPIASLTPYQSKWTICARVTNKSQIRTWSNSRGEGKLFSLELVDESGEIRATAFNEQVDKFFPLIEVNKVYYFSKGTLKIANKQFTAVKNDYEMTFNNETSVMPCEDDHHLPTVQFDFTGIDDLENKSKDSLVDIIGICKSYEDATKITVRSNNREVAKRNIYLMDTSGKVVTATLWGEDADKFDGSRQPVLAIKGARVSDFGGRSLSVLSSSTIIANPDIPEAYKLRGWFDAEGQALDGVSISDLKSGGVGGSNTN

RPA-CDE-core [3] = molecular target: T3, RPA-CDE-core (human, UniProt P27694;P15927;P35244 436-616;43-171;1-121); assay: as above; parameters: unit not given here; settings: protein: recombinant, tags: N-terminal His, thrombin-cleaved, copies: 1;1;1, label: 5' 6-FAM
T3 sequence (P27694 436-616, chain 1 of 3): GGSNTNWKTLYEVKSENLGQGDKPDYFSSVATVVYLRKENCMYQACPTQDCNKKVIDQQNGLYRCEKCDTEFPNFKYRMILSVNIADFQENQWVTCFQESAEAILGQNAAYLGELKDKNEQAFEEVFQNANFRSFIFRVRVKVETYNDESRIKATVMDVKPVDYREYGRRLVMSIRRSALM
T3 sequence (P15927 43-171, chain 2 of 3): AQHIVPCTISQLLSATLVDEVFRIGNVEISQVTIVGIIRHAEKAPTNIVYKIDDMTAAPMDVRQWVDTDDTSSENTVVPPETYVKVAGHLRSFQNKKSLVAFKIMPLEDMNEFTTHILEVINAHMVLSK
T3 sequence (P35244 whole entry, chain 3 of 3): as the sequence (P35244 whole entry, chain 3 of 3) above

[4] = molecular target: T1, RPA (full-length heterotrimer …); assay: FP; 1500 mM NaCl; FP: 0.060 uM FAM-oligo, 10-1500 mM NaCl, room temperature; CD: Buffer A 25 mM Tris pH 7.5, 2 mM MgCl2, 6% glycerol, 1 mM DTT, 100 (or 10) mM NaCl, room temperature; parameters: unit not given here; settings: protein: recombinant; copies: 1;1;1; label: 5' 6-FAM; intramolecular G4, antiparallel at 100 mM NaCl, mixed/parallel at 10 mM NaCl
RPA-AB [5] = molecular target: T2, RPA-AB; assay: FP; 500 mM NaCl; FP: 0.060 uM FAM-oligo, 10-1500 mM NaCl, room temperature; CD: Buffer A 25 mM Tris pH 7.5, 2 mM MgCl2, 6% glycerol, 1 mM DTT, 100 (or 10) mM NaCl, room temperature; settings: protein: recombinant, tags: N-terminal His6, thrombin-cleaved, label: 5' 6-FAM
RPA-CDE-core [6] = molecular target: T3, RPA-CDE-core; assay: as above; settings: protein: recombinant, tags: N-terminal His, thrombin-cleaved, copies: 1;1;1, label: 5' 6-FAM
[7] = molecular target: T1, RPA (full-length heterotrimer …); assay: FP; 500 mM NaCl; stoichiometric (equilibrium only at 1250 mM); FP: 0.060 uM FAM-oligo, 10-1500 mM NaCl, room temperature; CD: Buffer A 25 mM Tris pH 7.5, 2 mM MgCl2, 6% glycerol, 1 mM DTT, 100 (or 10) mM NaCl, room temperature; settings: protein: recombinant; copies: 1;1;1; label: 5' 6-FAM; intramolecular G4, antiparallel at 100 mM NaCl, mixed/parallel at 10 mM NaCl
RPA-DE [8] = molecular target: T4, RPA-DE (human, UniProt P15927;P35244 43-171;1-121); assay: FP; 10 mM NaCl; FP: 0.060 uM FAM-oligo, 10-1500 mM NaCl, room temperature; CD: Buffer A 25 mM Tris pH 7.5, 2 mM MgCl2, 6% glycerol, 1 mM DTT, 100 (or 10) mM NaCl, room temperature; parameters: unit not given here; settings: protein: recombinant; tags: N-terminal His, thrombin-cleaved; copies: 1;1; label: 5' 6-FAM; intramolecular G4, antiparallel at 100 mM NaCl, mixed/parallel at 10 mM NaCl
T4 sequence (P15927 43-171, chain 1 of 2): as the sequence (P15927 43-171, chain 2 of 3) above
T4 sequence (P35244 whole entry, chain 2 of 2): as the sequence (P35244 whole entry, chain 3 of 3) above

RPA-CDE-core [9] = molecular target: T3, RPA-CDE-core; assay: as above; parameters: unit not given here; settings: protein: recombinant, tags: N-terminal His, thrombin-cleaved, copies: 1;1;1, label: 5' 6-FAM
RPA-C [10] = molecular target: T5, RPA-C (human, UniProt P27694 432-595, V435T;W442Q;V465T;V469T;F523S;F567S;I571T); assay: as above; parameters: unit not given here; settings: protein: recombinant, tags: N-terminal His, thrombin-cleaved, label: 5' 6-FAM
T5 sequence (P27694 432-595 V435T/W442Q/V465T/V469T/F523S/F567S/I571T): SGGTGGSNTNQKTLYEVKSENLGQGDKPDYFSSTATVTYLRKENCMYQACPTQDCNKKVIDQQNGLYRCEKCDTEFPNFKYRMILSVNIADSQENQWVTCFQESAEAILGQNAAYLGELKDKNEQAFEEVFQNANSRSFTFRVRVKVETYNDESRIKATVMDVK

[11] = molecular target: T1, RPA (full-length heterotrimer …); assay: competition; FP, 0-10 uM unlabeled vs 60 nM FAM-Comp; FP: 0.060 uM FAM-oligo, 10-1500 mM NaCl, room temperature; CD: Buffer A 25 mM Tris pH 7.5, 2 mM MgCl2, 6% glycerol, 1 mM DTT, 100 (or 10) mM NaCl, room temperature; settings: protein: recombinant; copies: 1;1;1
RPA-CDE-core [12] = molecular target: T3, RPA-CDE-core; assay: as above; settings: protein: recombinant; tags: N-terminal His, thrombin-cleaved; copies: 1;1;1
[13] = molecular target: T1, RPA (full-length heterotrimer …); assay: FP; 500 mM NaCl; FP: 0.060 uM FAM-oligo, 10-1500 mM NaCl, room temperature; CD: Buffer A 25 mM Tris pH 7.5, 2 mM MgCl2, 6% glycerol, 1 mM DTT, 100 (or 10) mM NaCl, room temperature; settings: protein: recombinant; copies: 1;1;1; label: 5' 6-FAM
RPA-DE [14] = molecular target: T4, RPA-DE; assay: FP; 10 mM NaCl; FP: 0.060 uM FAM-oligo, 10-1500 mM NaCl, room temperature; CD: Buffer A 25 mM Tris pH 7.5, 2 mM MgCl2, 6% glycerol, 1 mM DTT, 100 (or 10) mM NaCl, room temperature; settings: protein: recombinant; tags: N-terminal His, thrombin-cleaved; copies: 1;1; label: 5' 6-FAM
RPA-C [15] = molecular target: T5, RPA-C; assay: as above; settings: protein: recombinant; tags: N-terminal His, thrombin-cleaved; label: 5' 6-FAM
RPA-AB [16] = molecular target: T2, RPA-AB; assay: FP; 1250 mM NaCl; FP: 0.060 uM FAM-oligo, 10-1500 mM NaCl, room temperature; CD: Buffer A 25 mM Tris pH 7.5, 2 mM MgCl2, 6% glycerol, 1 mM DTT, 100 (or 10) mM NaCl, room temperature; parameters: unit not given here; settings: protein: recombinant; tags: N-terminal His6, thrombin-cleaved; label: 5' 6-FAM
RPA-CDE-core [17] = molecular target: T3, RPA-CDE-core; assay: as above; parameters: unit not given here; settings: protein: recombinant; tags: N-terminal His, thrombin-cleaved; copies: 1;1;1; label: 5' 6-FAM
RPA-AB [18] = molecular target: T2, RPA-AB; assay: FP; 1500 mM NaCl; FP: 0.060 uM FAM-oligo, 10-1500 mM NaCl, room temperature; CD: Buffer A 25 mM Tris pH 7.5, 2 mM MgCl2, 6% glycerol, 1 mM DTT, 100 (or 10) mM NaCl, room temperature; parameters: unit not given here; settings: protein: recombinant; tags: N-terminal His6, thrombin-cleaved; label: 5' 6-FAM
[19] = molecular target: T1, RPA (full-length heterotrimer …); assay: FP; 500 mM NaCl; stoichiometric; FP: 0.060 uM FAM-oligo, 10-1500 mM NaCl, room temperature; CD: Buffer A 25 mM Tris pH 7.5, 2 mM MgCl2, 6% glycerol, 1 mM DTT, 100 (or 10) mM NaCl, room temperature; parameters: unit not given here; settings: protein: recombinant; copies: 1;1;1; label: 5' 6-FAM
RPA-CDE-core [20] = molecular target: T3, RPA-CDE-core; assay: CD titration; 100 mM NaCl; unfolds G4, complete at protein:DNA 2; FP: 0.060 uM FAM-oligo, 10-1500 mM NaCl, room temperature; CD: Buffer A 25 mM Tris pH 7.5, 2 mM MgCl2, 6% glycerol, 1 mM DTT, 100 (or 10) mM NaCl, room temperature; settings: protein: recombinant; tags: N-terminal His, thrombin-cleaved; copies: 1;1;1; intramolecular G4
RPA-DE [21] = molecular target: T4, RPA-DE; assay: CD titration; 10 mM NaCl; stabilizes antiparallel G4; FP: 0.060 uM FAM-oligo, 10-1500 mM NaCl, room temperature; CD: Buffer A 25 mM Tris pH 7.5, 2 mM MgCl2, 6% glycerol, 1 mM DTT, 100 (or 10) mM NaCl, room temperature; settings: protein: recombinant; tags: N-terminal His, thrombin-cleaved; copies: 1;1; intramolecular G4
RPA-C [22] = molecular target: T5, RPA-C; assay: CD titration; 10 mM NaCl; 254 nm peak decreases, 292 nm unchanged; FP: 0.060 uM FAM-oligo, 10-1500 mM NaCl, room temperature; CD: Buffer A 25 mM Tris pH 7.5, 2 mM MgCl2, 6% glycerol, 1 mM DTT, 100 (or 10) mM NaCl, room temperature; settings: protein: recombinant; tags: N-terminal His, thrombin-cleaved; intramolecular G4
[23] = intramolecular G4, antiparallel at 100 mM NaCl, mixed/parallel at 10 mM NaCl

TAGGGGAAGGGTTGGAGTGGGTT (structured_DNA, 18-carbon spacer (sp18) at 5' end) [Gq23 (FP)]
Kd [1]: 0.37 | Kd (RPA-AB [2]; [23]): 0.44 | Kd (RPA-CDE-core [3]; [23]): 0.55 | Kd [4]: 0.85 | Kd (RPA-AB [5]; [23]): 3.28 | Kd (RPA-CDE-core [6]; [23]): 11.9 µM | Kd [7]: ~0.04 0.02 | Kd (RPA-DE [8]): 6.68 | Kd (RPA-CDE-core [9]; [23]): 0.16 | Kd (RPA-C [10]; [23]): 3.62

ATCCCCTTCCCAACCTCACCCAA (ssDNA) [Comp competitor (unlabeled)]
binding result [11]: binds | binding result (RPA-CDE-core [12]): binds

AAAAAAAAAAAAAAAAAAAAAAA (ssDNA, 18-carbon spacer (sp18) at 5' end) [polyA]
Kd (RPA-AB [2]): 1.83 | Kd (RPA-CDE-core [3]): 5.88 | Kd [13]: 0.17 | binding result (RPA-DE [14]): no binding | binding result (RPA-C [15]): no binding | Kd (RPA-CDE-core [9]): 0.53

ATCCCCTTCCCAACCTCACCCAA (ssDNA, 18-carbon spacer (sp18) at 5' end) [Anti (Comp)]
Kd (RPA-AB [16]): 2.65 | Kd (RPA-CDE-core [17]): 2.81 | Kd (RPA-AB [2]): 0.66 | Kd (RPA-CDE-core [3]): 0.42 | Kd (RPA-AB [18]): 2.45 | Kd (RPA-AB [5]): 1.79 | Kd (RPA-CDE-core [6]): 0.75 | Kd [19]: ~0.06 | binding result (RPA-DE [14]): no binding | Kd (RPA-CDE-core [9]): 0.22 | Kd (RPA-C [10]): 3.32

TAGGGGAAGGGTTGGAGTGGGTT (structured_DNA) [Gq23 (CD, unlabeled)]
binding result (RPA-CDE-core [20]): binds | binding result (RPA-DE [21]): binds | binding result (RPA-C [22]): binds
